The record followed here is the nanobody polyreactivity screen of Harvey et al. (2022).

A short description of this data set: yeast display, Sf9 membrane polyspecificity reagent, FACS + sequencing; frameworks hold sequencing errors. In a few lines: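 Sorting gates, low and high (top ~1%), were placed on anti-HA fluorescence to track expression and on streptavidin fluorescence to track reagent binding. A clone's polyreactivity label is taken from the gate it came out of. The reagent was 10% biotinylated, detergent-solubilized Sf9 membrane, applied for 1 hour at 4 °C to galactose-induced yeast display cells.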
On to “QVQLVESGGGLVQAGGSLRLSCAASGRTIDSYAMGWSRQAPGKEREFVAAISYSGTSTYYADSVKGRFTISRDNAKNTVYLQMNSLKPEDTAVYYCSKEYNFRLWGQGTQVTVSS”, for which the “polyreactivity (PSR sort gate)” value is “low polyreactivity”.
To “QVQLVESGGGLVQAGGSLRLSCAASGRTIDYNGMGWYRQAPGKEREMVAVISSSGGSTFYADSVKGRFTISRDNAKNTVYLQMNSLKPEDTAVYYSAADFIVAYTLHGSYDYWGQGTQVTVSS” belongs “low polyreactivity”; to “QVQLVESGGGLVQAGGSLRLSCAASGRTIGFNGMGWYRQAPGKERELVAAITRSGGNTYADSVKGRFTISRDNAKNTVYLQMNSLKPEDTAVYYCATTYVGVTLTGPGDYWGQGTQVTVSS”, “low polyreactivity”.
As for “QVQLVESGGGLVQAGGSLRLSCAASGRTIGLNGMGWYRQAPGNERELVAGISWSGGSTNYADSVKGRFTISRDNAKNTVYLQMNSLKPEDTAVNYCPPDFVYYVVNDFGWSYAYEYWGQGTQVTVSS”, the entry is “low polyreactivity”.
For “QVQLVESGGGLVQAGGSLRLSCAASGRTIGVYAMGWYRQAPGKERELVAAISWSGGTTYYADSVKGRFTISRDNAKNTVYLQMNSLKPEDTAVYYCAADSYTEVEYWGQGTQVTVSS”, the “polyreactivity (PSR sort gate)” value was “low polyreactivity”.
For “QVQLVESGGGLVQAGGSLRLSCAASGRTIHYYAMGRSRQAPGKERELVAAITRGGNTYYADSVKGRFTISRDNAKNTVYLQMNSLKPEDTAVYYCAKDNHFEAYRYDYWGQGTQVTVSS”, the “polyreactivity (PSR sort gate)” value is on record as “high polyreactivity”.
As to “QVQLVESGGGLVQAGGSLRLSCAASGRTIKKYTMGWSRQAPGKERELVAVITSGGSTYYADSVKGRFTISRDNAKNTVYFQMNSLKPEDTAVYYCAVIYPELRTWGYYFWGQGTQVTVSS”, the “polyreactivity (PSR sort gate)” value was “high polyreactivity”.
“QVQLVESGGGLVQAGGSLRLSCAASGRTIKYNAMGRYRQGPGKERELVAAITYSGGSTYYADSVKGRFTIARDNAKNTVYLQMNSLKPEDTSVYYCAAESRPYDPGIYGDYDYWGQGTQVTVSS”: the “polyreactivity (PSR sort gate)” value is recorded as “low polyreactivity”.
“QVQLVESGGGLVQAGGSLRLSCAASGRTIKYYAMGWYRQAPGKERELVAVISWSGGSTYYADSVKGRFTISRDNAKNTVYLQMNSLKPEDTAVYYCNAVHQYRRRYNYWGQGTQVTVSS”: the “polyreactivity (PSR sort gate)” value is “high polyreactivity”.
With “QVQLVESGGGLVQAGGSLRLSCAASGRTINRSAMGWYRQAPGKARELVAAISTSGGTTYYADSVKGRFTISRDNAQNTAYLQMNSLKPEDPADYYCAKRGPVRTQYTYYYWGQGTQVTVSS”, the “polyreactivity (PSR sort gate)” value is “high polyreactivity”.
On to “QVQLVESGGGLVQAGGSLRLSCAASGRTINRYAMGWYRQAPGKERELVAAISTSGGTTYYADSVKGRFTISRDNAKNTVYLQMNSLKPEDSAVYYCAAVARRGSYLGQRLDYWGQGTQVTVSS”, for which the “polyreactivity (PSR sort gate)” value was “high polyreactivity”.
As for “QVQLVESGGGLVQAGGSLRLSCAASGRTIPFYAMGWYRQAHGKERELVDAIDSGGNTYADSVKGRFTISRDNAKNTVYLQMISLKPEDTAVYYCAVDGGEFSSYGYWGQGTQVTVSS”, the “polyreactivity (PSR sort gate)” value is on record as “low polyreactivity”.
As for “QVQLVESGGGLVQAGGSLRLSCAASGRTIPNYAMGWTRQAPGKERELVAAISSSGDRTYYADSVKGRFTISRDNAKNTVYLQMNSLKPEDTAVYYCAADRGARGDYWGQGTQVTVSS”, the “polyreactivity (PSR sort gate)” value is “high polyreactivity”.
Regarding “QVQLVESGGGLVQAGGSLRLSCAASGRTIRGYAMGWYRQAPGKERELVAAITRSGGSTFADSVKGRFTISRDNAKNTVYLQMNSLKPEDTAVYYCAADRGYKYYYWGQGTQVTVSS”, the “polyreactivity (PSR sort gate)” value is recorded as “high polyreactivity”.
Regarding “QVQLVESGGGLVQAGGSLRLSCAASGRTIRHNAMGWYRQAPGKERELVAAISRSGGSTYYADSVKGRFTISRDNAKNTVYLQMNSLKPEDTAVYYCAAGYHIIYTPEYYYWGQGTQVTVSS”, the “polyreactivity (PSR sort gate)” value is recorded as “high polyreactivity”.
In the case of “QVQLVESGGGLVQAGGSLRLSCAASGRTIRWNAMGGSRPAPGKERELVAAITSRGGSTYYADSVKGRFTISRDNAKNTVYLQMNSLKPEDTAVYYCAAGGRYGDDYWGQGTQVTVSS”, the “polyreactivity (PSR sort gate)” value is listed as “high polyreactivity”.
On to “QVQLVESGGGLVQAGGSLRLSCAASGRTIVSNAMGWYRQAPGKERELVAAITRGSRTYYADSVKGRFTISRDNAKNTVYLQMNILKPEDTAVYYCAAYRDYGSYGSWGQGTQVTVSS”, for which the “polyreactivity (PSR sort gate)” value is listed as “high polyreactivity”.
As to “QVQLVESGGGLVQAGGSLRLSCAASGRTIWNYALGWYRQGPGKERELVAVIRFSDGSTYYADSVKGRFTISRDNAKNTVYLQMNSLKPEDTAVYYCAAKGPRLWGSGFDYWGQGTQVTVSS”, the “polyreactivity (PSR sort gate)” value is given as “low polyreactivity”.
As for “QVQLVESGGGLVQAGGSLRLSCAASGRTIYRNAMGWYRQAPGKERELVAAITSGGSTNYADSVKGRFTLSRDNAKNTGYLQMNSLKPEDTAVYYCAATRGRYLWYYRYDYWGQGTQVTVSS”, the “polyreactivity (PSR sort gate)” value is on record as “high polyreactivity”.
In the case of “QVQLVESGGGLVQAGGSLRLSCAASGRTIYYYAMGWYRQAPGKERELVAAISRSGSSTFYADSVKGRFTISRDNAKNTVYLQMNSLKPEDTAVYYCAADDYSRRVYFFFGAYDYWGQGTQVTVSS”, the “polyreactivity (PSR sort gate)” value is recorded as “high polyreactivity”.
On to “QVQLVESGGGLVQAGGSLRLSCAASGRTLAHYTMGWYRQAPGKERELVAAITFSGGRTYYADSVKGRFTISRDNAKNTVYLQMNSQKPEDTAVYYCAAPGRWYYRGDDYWGQGTQVTVSS”, for which the “polyreactivity (PSR sort gate)” value was “low polyreactivity”.
Take “QVQLVESGGGLVQAGGSLRLSCAASGRTLARNAMGWDRQAPGKEWELVASINGRTTRTYYADSVKGRFTISRDNANNTVYLQRNSLKPEDTAVYYCAADPPGYVYGKRYYWGQGTQVTVSS”: the “polyreactivity (PSR sort gate)” value is “high polyreactivity”.
As to “QVQLVESGGGLVQAGGSLRLSCAASGRTLARNAMGWYRQAPGKERELVASINGRTTRTYYADSVKGRFTISRDNAKNTVYFQMNSLKPEDPAVYYCAADPPGYVYGKRYYWGQGTQVTVSS”, the “polyreactivity (PSR sort gate)” value was “high polyreactivity”.
Turning to “QVQLVESGGGLVQAGGSLRLSCAASGRTLARTALGWYRQAPGKERELVAAISRRAVRTYYADSVKGRFTISRDNAKNTVYLQMNILKPEDTAVYYCYAASSLPGYDYWGQGTQVTVSS”, the “polyreactivity (PSR sort gate)” value is given as “high polyreactivity”.
Consider “QVQLVESGGGLVQAGGSLRLSCAASGRTLFPNVMGWYRQAPGKERELVAAIRGTGGSTYADSVKGRVTISRDNAKNTVYLQMNSLKPEDTAVYYCAAGYPVTRRTIRFDYWGQGTQVTVSS”, for which the “polyreactivity (PSR sort gate)” value is “high polyreactivity”.
To “QVQLVESGGGLVQAGGSLRLSCAASGRTLFTIAMGWYRQAPGKERELLAAISIGGTTYYADSVKGRFTISRDYAKNTVYLQMNSLKPEDTAVYYCNKVRRFHSEYGYWGQGTQVTVSS” belongs “high polyreactivity”; to “QVQLVESGGGLVQAGGSLRLSCAASGRTLFWNAMGWYRQAPGKEREFVAAIRWRGGSTYYADSVKGRFTISRDNAKNTVYLQMNSLKPEDTAVYYCGAAVRPYKRQDDYWGQGTQVSVSS”, “high polyreactivity”; to “QVQLVESGGGLVQAGGSLRLSCAASGRTLGTNAMGWYRQAPGKERELVATISRGGITNYADSVKGRFTISRDNPKNTVYLQMNSLKPEDTAVYYCNVRYQHVYRGYGPNKYNYWGQGTQVTVSS”, “high polyreactivity”.
To “QVQLVESGGGLVQAGGSLRLSCAASGRTLGYNAMGWYRQAPGKARELVASINSGVSTNYADSVQGRFTISRDNAKNTVYLQMNSLKPEDTAVYYCAAEKYGRGAGREGWESDYWGQGTQVTVSS” belongs “low polyreactivity”; to “QVQLVESGGGLVQAGGSLRLSCAASGRTLGYYAKGWYRQAPGKERELVAAISRSGGSTYYADSVKGRFTISRDNAKNTVYLQMNSLKPEDTAVYYCAATYGPSRYRYDYWGQGTQVTVSS”, “high polyreactivity”.
For “QVQLVESGGGLVQAGGSLRLSCAASGRTLIYYAMGWYRQAPGKERELVAAISSSGTSTYYADSVKGRFTISRDNAKNTVYLQMNSLKPEDTAVYYCAADGRTLGRRYYYWGQGTQVTVSS”, the “polyreactivity (PSR sort gate)” value was “high polyreactivity”.
For the sequence “QVQLVESGGGLVQAGGSLRLSCAASGRTLLLNTMGWYRQAPGKERELVAAISWRDGSTYYADSVKGRFTFSRDKAKNTVYLLMNSLKPEDTAVYYCNARLSGRSQYDVRFDYWGQGTQVTVSS”, the “polyreactivity (PSR sort gate)” value is listed as “low polyreactivity”.
“QVQLVESGGGLVQAGGSLRLSCAASGRTLLPNAMGWSRQAPGKERELVASIRDGGDTNYADSVKGRFTISRDNAKNTVYLQMNSLKPEDTAVYYCNADWWAYYSFGHEYWGQGTQVTVSS”: the “polyreactivity (PSR sort gate)” value is listed as “low polyreactivity”.
As for “QVQLVESGGGLVQAGGSLRLSCAASGRTLLSPNAMGWYRQAPGKARELVAVISWSDGSTYYADSVKGRFTISRDNANNTVYLQMNSLKPEDTAVYYSAASDPFEASQYKYDYWGQGTQVTVSS”, the “polyreactivity (PSR sort gate)” value is on record as “low polyreactivity”.
To “QVQLVESGGGLVQAGGSLRLSCAASGRTLNAYAMGWYRHAPGKERELVAAITWDDGSTYYAHSVKGRFTISRDNAKNTVSLQMNSLKPEDSAVYYCAAYAYNAIEYGYWGQGTQVNVSS” belongs “low polyreactivity”.
For the sequence “QVQLVESGGGLVQAGGSLRLSCAASGRTLPFNAMGWYRQAPGKERELVAAITRGGSTNYADSVKGRFTISRDNAKNTVYLQMNSLKPEDTAVYYCAARRYAWYGYRAYDYWGQGTQVTVSS”, the “polyreactivity (PSR sort gate)” value is “high polyreactivity”.
For “QVQLVESGGGLVQAGGSLRLSCAASGRTLQHYAMGWYRQAPGKERELVAGITKNGGSTYYADSVKGRFTISRDNAKNTVYLQMNSLKPEDTAVYYCAKRWGGYSIPLDYDYWGQGTQVTVSS”, the “polyreactivity (PSR sort gate)” value was “low polyreactivity”.
As for “QVQLVESGGGLVQAGGSLRLSCAASGRTLQWYAMGWYRQAPGKERELVATISSGGSTKYADSVKGRFTISRDNAKNTVYLQMNSLKPEDTAVYYCNAQPYGIYYHRYYYWGQGTQVTVSS”, the “polyreactivity (PSR sort gate)” value is given as “low polyreactivity”.
Turning to “QVQLVESGGGLVQAGGSLRLSCAASGRTLRRYAMGWYRQAPGKERELVAAITSGGTTNYADSVKGRFTISRDNAKNTVYLQMNSLKPEDTAVYYCNARKSSGLSSYDWYSWEYGYWGQGTQVTVSS”, the “polyreactivity (PSR sort gate)” value is listed as “low polyreactivity”.
To “QVQLVESGGGLVQAGGSLRLSCAASGRTLRYYAMGWYRQAPGKDRELVASISIGGSTYYADSVKGRFTISRDNAKNTVYLQMTSLKPEDTAVYYGATDYSNSGYGYWGQGTQVTVSS” belongs “low polyreactivity”; to “QVQLVESGGGLVQAGGSLRLSCAASGRTLRYYAMGWYRQAPGTERELVASISIGGSTYYADSVKGRFTISRDNAKNTVYLQMHSQKPEATAVYYCATDYSTSGYGYWGQGTQVTVST”, “low polyreactivity”.
